Results reported in publication PMC12416549 (2024).
Residue numbers refer to the chain shown, from its start. In names and notes the source's numbering stands.

T1: TNFR1 (Homo sapiens, UniProt P19438)
T1 chain: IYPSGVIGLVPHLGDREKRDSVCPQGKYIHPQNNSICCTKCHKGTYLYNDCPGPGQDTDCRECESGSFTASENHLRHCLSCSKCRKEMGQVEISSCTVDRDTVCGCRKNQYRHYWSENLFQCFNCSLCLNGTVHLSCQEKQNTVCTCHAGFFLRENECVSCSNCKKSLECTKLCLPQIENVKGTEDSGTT

B1: K100E (designed binder)
chain: SMEEEVEKAAKEYEKKKKEAIEKHLEKLKAKDKEAAERFLKELEEAAKEYAKDEAKTMSEEEAKRRAKKYKEKVLLSELSEEEQKEIKEAEEKLVRTILEYVEEAAK
B2: K29P (designed binder)
chain: B1 chain with K29P, E100K
B3: E22T (designed binder)
chain: B1 chain with E22T, E100K
B4: D32Y (designed binder)
chain: B1 chain with D32Y, E100K
B5: E37D (designed binder)
chain: B1 chain with E37D, E100K
B6: R65Y (designed binder)
chain: B1 chain with R65Y, E100K
B7: E3A (designed binder)
chain: B1 chain with E3A, E100K
B8: H24Y (designed binder)
chain: B1 chain with H24Y, E100K
B9: E54G (designed binder)
chain: B1 chain with E54G, E100K
B10: E14G (designed binder)
chain: B1 chain with E14G, E100K
B11: L76G (designed binder)
chain: B1 chain with L76G, E100K
B12: A90T (designed binder)
chain: B1 chain with A90T, E100K
B13: Y101F (designed binder)
chain: B1 chain with E100K, Y101F
B14: L43D (designed binder)
chain: B1 chain with L43D, E100K
B15: K41P (designed binder)
chain: B1 chain with K41P, E100K
B16: E62Q (designed binder)
chain: B1 chain with E62Q, E100K
B17: A30M (designed binder)
chain: B1 chain with A30M, E100K
B18: A106L (designed binder)
chain: B1 chain with E100K, A106L
B19: Q84G (designed binder)
chain: B1 chain with Q84G, E100K
B20: E62C (designed binder)
chain: B1 chain with E62C, E100K
B21: E22Q (designed binder)
chain: B1 chain with E22Q, E100K
B22: E86M (designed binder)
chain: B1 chain with E86M, E100K
B23: E3C (designed binder)
chain: B1 chain with E3C, E100K
B24: K15H (designed binder)
chain: B1 chain with K15H, E100K
B25: R65K (designed binder)
chain: B1 chain with R65K, E100K
B26: E89I (designed binder)
chain: B1 chain with E89I, E100K
B27: Y50P (designed binder)
chain: B1 chain with Y50P, E100K
B28: E42A (designed binder)
chain: B1 chain with E42A, E100K
B29: K107S (designed binder)
chain: B1 chain with E100K, K107S
B30: A90C (designed binder)
chain: B1 chain with A90C, E100K
B31: E22C (designed binder)
chain: B1 chain with E22C, E100K
B32: E61W (designed binder)
chain: B1 chain with E61W, E100K
B33: E5G (designed binder)
chain: B1 chain with E5G, E100K
B34: D32N (designed binder)
chain: B1 chain with D32N, E100K
B35: A67C (designed binder)
chain: B1 chain with A67C, E100K
B36: Y13S (designed binder)
chain: B1 chain with Y13S, E100K
B37: A55Y (designed binder)
chain: B1 chain with A55Y, E100K
B38: K31N (designed binder)
chain: B1 chain with K31N, E100K
B39: K23L (designed binder)
chain: B1 chain with K23L, E100K
B40: Y70E (designed binder)
chain: B1 chain with Y70E, E100K
B41: K41A (designed binder)
chain: B1 chain with K41A, E100K
B42: E37M (designed binder)
chain: B1 chain with E37M, E100K
B43: I21L (designed binder)
chain: B1 chain with I21L, E100K

Biological target: T1, TNFR1
Experiment: yeast display SC50

| Binder | apparent Kd (screen) [nM] |
| --- | --- |
| B1 | 1.54 |
| B2 | 7.78 |
| B3 | 0.539 |
| B4 | 13.8 |
| B5 | 0.539 |
| B6 | 11.4 |
| B7 | 1.86 |
| B8 | 1.69 |
| B9 | 11.4 |
| B10 | 12.5 |
| B11 | 11.4 |
| B12 | 0.593 |
| B13 | 0.49 |
| B14 | 6.43 |
| B15 | 2.48 |
| B16 | 0.79 |
| B17 | 0.593 |
| B18 | 2.25 |
| B19 | 12.5 |
| B20 | 2.73 |
| B21 | 0.718 |
| B22 | 0.869 |

| Binder | apparent Kd (screen) [nM] |
| --- | --- |
| B23 | 7.07 |
| B24 | 0.49 |
| B25 | 0.869 |
| B26 | 3 |
| B27 | 4.39 |
| B28 | 10.4 |
| B29 | 1.05 |
| B30 | 0.593 |
| B31 | 1.05 |
| B32 | 1.86 |
| B33 | 0.446 |
| B34 | 0.79 |
| B35 | 22.2 |
| B36 | 0.49 |
| B37 | 10.4 |
| B38 | 0.79 |
| B39 | 0.79 |
| B40 | 0.718 |
| B41 | 0.869 |
| B42 | 0.718 |
| B43 | 1.16 |
